This note sets out measurements from paper PMC8167871, “Three‐dimensional structures of avian beta‐microseminoproteins: insight from the chicken egg‐specific beta‐microseminoprotein 3 paralog” (FEBS Open Bio, 2021).

Usually stoichiometry N stands for the number of molecules, sites or subunits per partner or assembly.

The data set deals with the molecule itself. In words: MALDI-TOF mass spectrometry; top-down analysis of purified MSMB3 without any reduction or alkylation.

B1: chicken beta-microseminoprotein 3 (MSMB3), proteoform lacking the C-terminal glycine, MSMB3(-G) (natural protein, chicken (Gallus gallus))
chain: RCYFRTSSKYGCISNRNLYVFGAVWKTEDCYQCKCKMNAMVCCSLVSIPKNYDRVNCVGLFHKKSCSIRVVKKTDPDISCKVYNGV
modifications: five disulfide bridges (C2-C43, C12-C35, C30-C66, C33-C42, C57-C80); delta mass of -1 Da on two lysines, especially K63 (potential oxidation of the lysine residue)
notes: chicken (Gallus gallus) MSMB3, mature protein without its C-terminal G87 (major proteoform of the purified sample, residues 1-86); numbers count on: the mature protein; The dimer seen by mass spectrometry and the crystal structure are of MSMB3(-G); the NMR sample is called only MSMB3; also called Gga-MSMB3; Gga-MSMB3 without G
For B1, the “stoichiometry N” value was found to be 2.
